Literature values, collected in paper PMC7619008.
pKd: −log10 of the molar value.

Target: substance P (Rattus norvegicus) (UniProt P06767)
UniProt P06767, sequence (P06767 whole entry, looked up): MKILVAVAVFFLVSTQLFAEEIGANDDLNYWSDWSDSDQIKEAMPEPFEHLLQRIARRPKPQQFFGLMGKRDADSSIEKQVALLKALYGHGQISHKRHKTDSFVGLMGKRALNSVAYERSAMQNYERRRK

pKd: 8.52
Substance: NK1 receptor (from UniProt P14600)
